Assay results published in article PMC11392804.

How the values were obtained:
[1] = SEC; Superdex 75 Increase 10/300 GL, ~2 mg ml^−1 (76 μM) protein loaded via 100 μl loop, 0.8 ml min^−1, 150 mM NaCl, 20 mM HEPES pH 7.2; monomer and dimer percentages from integrated peak areas; dimer to monomers
[2] = biological target: StayGold (Cytaeis uchidae (parent GFP)); assay: as above

Row | Substance | percent dimer (SEC peak areas) [1] | stoichiometry N [2] | percent monomer (SEC peak areas) [1]
1 | StayGold | the original StayGold is ~98% dimer | 2 | –
2 | mStayGold (StayGold E138D) | – | – | the E138D mutant is more than 99% monomer
